The experiment concerns the target native Drosophila core histones (Drosophila, UniProt P84051 1-124; P02283 1-123; P02299 1-136; P84040 1-103). Nature of the experiment: co-sedimentation.

B1: recombinant Drosophila NLP, C-terminal 6-His tag (natural protein)
chain: MAEESFYGVTLTAESDSVTWDVDEDYARGQKLVIKQILLGAEAKENEFNVVEVNTPKDSVQIPIAVLKAGETRAVNPDVEFYESKVTFKLIKGSGPVYIHGHNIKDDVEVVDMEEDDEEDDVAEDEEDEHPKKRAKIENAADGKNAKNNKKK
Turning to B1, the binding result is listed as “binds”.

(Values after PMC4173154 (Genes & Development, 2014).)
